Experimental data taken from patent US9766245B2, “Method of detecting cancer based on glycan biomarkers” (California Institute of Technology, priority 2013, dated 2017).

Experiments:
[1] = target: T1, BgtA (Helicobacter mustelae, UniProt D3UIY4); assay: BgtA labeling of Galβ(1-4)GlcNAc-pNP in solution; format: biochemical; settings: 2 h, 25° C.
[2] = target: T1, BgtA; assay: Chemoenzymatic labeling on the glycan array; format: biochemical; settings: 0.5, 2 and 12 h, rt; ADIBO-biotin, Cy5-streptavidin; labeled if 12 h signal minus background >1000 relative fluorescence units
Experimental: Chemoenzymatic Labeling on the Glycan Array.
Glycan Array version 5.0 was provided by the Consortium for Functional Glycomics (CFG). Pre-equilibrated arrays were treated with BgtA enzyme (0.16 mg/mL) and 500 μM UDP-GalNAz 2 in 20 mM Tris.HCl pH 7.4, 50 mM NaCl, 2 mM MnCl2 containing 1% bovine serum albumin (BSA) for various times (0, 0.5, 2, and 12 h) at rt, washed 4 times with wash buffer (20 mM Tris.HCl pH 7.4, 50 mM NaCl, 0.1% Triton X-100) and then 4 times with rinse buffer (20 mM Tris.HCl pH 7.4, 50 mM NaCl). The arrays were then incubated with ADIBO-biotin (5 μM) in 20 mM Tris.HCl pH 7.4, 50 mM NaCl for 2 h at rt. […] The arrays were then washed 4 times with wash buffer (containing 0.05% Tween-20 instead of 0.1% Triton X-100), 4 times with rinse buffer, 4 times with water, dried under a low stream of filtered air, and scanned using a PerkinElmer ScanArray Express fluorescence scanner and ImaGene data analysis software (BioDiscovery). Data were analyzed per the guidelines of the CFG. […] Because background fluorescence can be heterogeneous across the array, each array was divided into areas of 10 by 10 spots, or sub-arrays, and a background fluorescence value was calculated within each sub-array by the software. This value was then subtracted from the fluorescence signal for each glycan spot within the sub-array by the software. […]

[3] = target: T1, BgtA; assay: Kinetic analysis of BgtA with UDP-GalNAz and UDP-GalNAc; format: biochemical; settings: 100 μM acceptor 1
Experimental: (§1) Kinetic Analysis of BgtA with UDP-GalNAz and UDP-GalNAc.
(§2) Reactions were performed in duplicate with 100 μM acceptor substrate (1), 0.7 μg BgtA, and varying concentrations of UDP-GalNAz or UDP-GalNAc (50 to 800 μM) in 20 mM Tris-HCl pH 7.5, 50 mM NaCl, 10 mM MnCl2 at rt in a total volume of 20 μL. Product formation was monitored at 280 nm by reverse phase-HPLC (Agilent 1100), and time points were taken over the course of 5 min using a linear, 3-95% gradient of B (A: 0.1% aqueous trifluoroacetic acid B: 0.1% trifluoroacetic acid in MeCN) over 8 min with a flow rate of 1 mL/min. The kinetic parameters, apparent Km, Vmax, and kcat, were obtained by linear regression analysis of initial velocity vs. donor substrate concentration using KaleidaGraph (version 4.1.2).

[4] = target: T1, BgtA; assay: BgtA activity assay monitored by LC-MS/MS; format: biochemical; settings: donor substrate, 12 h at 4° C.
Experimental: BgtA Activity Assay and Monitoring of Chemoenzymatic Labeling Reactions by LC-MS/MS.
The Fucα(1-2)Gal substrate 1 (10 μM) was dissolved in 20 mM Tris.HCl pH 7.5, 50 mM NaCl, and 5 mM MnCl2. BgtA enzyme (Yi, W.; Shen, J.; Zhou, G.; Li, J.; Wang, P. G. J. Am. Chem. Soc. 2008, 130, 14420.) and UDP-ketoGal 3 (Khidekel, N.; Arndt, S.; Lamarre-Vincent, N.; Lippert, A.; Poulin-Kerstien, K. G.; Ramakrishnan, B.; Qasba, P. K.; Hsieh-Wilson, L. C. J. Am. Chem. Soc. 2003, 125, 16162.) or UDP-GalNAz 2 (Invitrogen) were added to final concentrations of 0.16 mg/mL and 50 μM, respectively, in a final volume of 100 μL. The reaction was incubated at 4° C. in the dark for 12-16 h, and the reaction progress was monitored by LC-MS/MS. To label with aminooxy-biotin 7, the reactions were diluted 5-fold with saturated urea, 2.7 M NaOAc pH 3.9 (50 mM final concentration and pH 4.8), and 7 (5 mM final concentration, Dojindo) and incubated for 20-24 h at rt. To label with ADIBO-biotin 6, 250 μM of 6 (Click Chemistry Tools) was added, and the reaction was incubated for 3 h at rt. […]

[5] = tested on: CC(=O)N[C@H]1[C@@H](OP(=O)(O)OP(=O)(O)OC[C@H]2O[C@@H](n3ccc(=O)[nH]c3=O)[C@H](O)[C@@H]2O)O[C@H](CO)[C@H](O)[C@@H]1O; assay: Kinetic analysis of BgtA with UDP-GalNAz and UDP-GalNAc; format: biochemical, Helicobacter mustelae; settings: other: donor substrate, 100 μM acceptor 1, donor 50 to 800 μM, rt; pH 7.5
Experimental: as §1, §2

[6] = tested on: [N-]=[N+]=NCC(=O)N[C@H]1[C@@H](OP(=O)(O)OP(=O)(O)OC[C@H]2O[C@@H](n3ccc(=O)[nH]c3=O)[C@H](O)[C@@H]2O)O[C@H](CO)[C@H](O)[C@@H]1O; assay: as above; format: biochemical, Helicobacter mustelae; settings: other: donor substrate, 100 μM acceptor 1, donor 50 to 800 μM, rt; pH 7.5
Experimental: as §1, §2

[7] = target: T1, BgtA; assay: Chemoenzymatic labeling of cell lysates, streptavidin capture and Western blotting; format: biochemical; settings: rat brain (olfactory bulb) lysates, BgtA + UDP-GalNAz, alkyne-biotin 11, streptavidin capture, immunoblot; in the presence but not absence of BgtA

`CC(=O)N[C@H]1[C@H](Oc2ccc([N+](=O)[O-])cc2)O[C@H](CO)[C@@H](O[C@@H]2O[C@H](CO)[C@H](O)[C@H](O)[C@H]2O)[C@@H]1O` [Galβ(1-4)GlcNAc-pNP, p-nitrophenyl 2-acetamido-2-deoxy-4-O-(β-D-galactopyranosyl)-β-D-glucopyranoside] was tested, and the “labeling by BgtA in solution” value [1] was “failed to label”.

With `CC(=O)N[C@@H]1[C@@H](O[C@@H]2O[C@H](CO)[C@H](O)[C@H](O)[C@H]2O[C@@H]2O[C@@H](C)[C@@H](O)[C@@H](O)[C@@H]2O)[C@H](O[C@@H]2O[C@@H](C)[C@@H](O)[C@@H](O)[C@@H]2O)[C@@H](CO)O[C@H]1O` [Glycan 61] the “labeling of glycan by BgtA and UDP-GalNAz on microarray” value [2] was “weak labeling”.

For `CC(=O)N[C@H]1[C@@H](OP(=O)(O)OP(=O)(O)OC[C@H]2O[C@@H](n3ccc(=O)[nH]c3=O)[C@H](O)[C@@H]2O)O[C@H](CO)[C@H](O)[C@@H]1O` [UDP-GalNAc], the “Vmax fold higher than that of UDP-GalNAz” value [3] was “approximately 5 fold”.

For `[N-]=[N+]=NCC(=O)N[C@H]1[C@@H](OP(=O)(O)OP(=O)(O)OC[C@H]2O[C@@H](n3ccc(=O)[nH]c3=O)[C@H](O)[C@@H]2O)O[C@H](CO)[C@H](O)[C@@H]1O` [UDP-GalNAz, UDP-N-azidoacetylgalactosamine], the “kcat/Km fold lower than natural UDP-GalNAc substrate” value [3] was “approximately 7 fold” and the “conversion of substrate 1 to the desired product with BgtA” value [4] was “complete conversion”.

Molecule BgtA (Helicobacter mustelae 12198) has a Km [5] of 127 ± 36 µM, a Vmax [5] of 0.100 ± 0.010 nmol/min and a Km [6] of 168 ± 55 µM. The Vmax [6] was 0.020 ± 0.002 nmol/min.

For “UDP-2-deoxy-2-(acetonyl)-β-D-galactopyranoside [UDP-ketoGal]”, the “conversion of substrate 1 to the desired product with BgtA” value [4] was “complete conversion”.

With “synapsin I: known Fucα(1-2)Gal glycoprotein in rat brain lysate” the “chemoenzymatic labeling and detection of glycoprotein” value (shortened to “chemoenzymatic labeling and detection”) [7] was “chemoenzymatically labeled and detected”.

B1: p44 MAPK: a protein that has not been shown to be fucosylated (protein, UniProt P21708 2-380, looked up)
Mitogen-activated protein …: AAAAAAPGGGGGEPRGTAGVVPVVPGEVEVVKGQPFDVGPRYTQLQYIGEGAYGMVSSAYDHVRKTRVAIKKISPFEHQTYCQRTLREIQILLRFRHENVIGIRDILRAPTLEAMRDVYIVQDLMETDLYKLLKSQQLSNDHICYFLYQILRGLKYIHSANVLHRDLKPSNLLINTTCDLKICDFGLARIADPEHDHTGFLTEYVATRWYRAPEIMLNSKGYTKSIDIWSVGCILAEMLSNRPIFPGKHYLDQLNHILGILGSPSQEDLNCIINMKARNYLQSLPSKTKVAWAKLFPKSDSKALDLLDRMLTFNPNKRITVEEALAHPYLEQYYDPTDEPVAEEPFTFDMELDDLPKERLKELIFQETARFQPGAPEAP
With B1 the “chemoenzymatic labeling and detection” value [7] was “not detected”.

B2: NCAM: known Fucα(1-2)Gal glycoprotein in rat brain lysate (protein, UniProt P13596 20-858, looked up)
Neural cell adhesion molecule …: LQVDIVPSQGEISVGESKFFLCQVAGDAKDKDISWFSPNGEKLSPNQQRISVVWNDDDSSTLTIYNANIDDAGIYKCVVTAEDGTQSEATVNVKIFQKLMFKNAPTPQEFKEGEDAVIVCDVVSSLPPTIIWKHKGRDVILKKDVRFIVLSNNYLQIRGIKKTDEGTYRCEGRILARGEINFKDIQVIVNVPPTVQARQSIVNATANLGQSVTLVCDADGFPEPTMSWTKDGEPIENEEEDDEKHIFSDDSSELTIRNVDKNDEAEYVCIAENKAGEQDASIHLKVFAKPKITYVENQTAMELEEQVTLTCEASGDPIPSITWRTSTRNISSEEKASWTRPEKQETLDGHMVVRSHARVSSLTLKSIQYTDAGEYICTASNTIGQDSQSMYLEVQYAPKLQGPVAVYTWEGNQVNITCEVFAYPSATISWFRDGQLLPSSNYSNIKIYNTPSASYLEVTPDSENDFGNYNCTAVNRIGQESLEFILVQADTPSSPSIDRVEPYSSTAQVQFDEPEATGGVPILKYKAEWKSLGEEAWHSKWYDAKEANMEGIVTIMGLKPETRYAVRLAALNGKGLGEISAATEFKTQPVREPSAPKLEGQMGEDGNSIKVNLIKQDDGGSPIRHYLVKYRALASEWKPEIRLPSGSDHVMLKSLDWNAEYEVYVVAENQQGKSKAAHFVFRTSAQPTAIPANGSPTAGLSTGAIVGILIVIFVLLLVVMDITCYFLNKCGLLMCIAVNLCGKAGPGAKGKDMEEGKAAFSKDESKEPIVEVRTEEERTPNHDGGKHTEPNETTPLTEPEKGPVETKSEPQESEAKPAPTEVKTVPNEATQTKENESKA
B2 was tested, and the “chemoenzymatic labeling and detection” value [7] was “chemoenzymatically labeled and detected”.
